Measurements as given in patent publication US20140221611A1.
Positions of bridges follow the written chain, without caps; N, C: chain ends. No end group written: not given here. *: point of attachment. NHNH2 = NN*

B1: Affinity ligand CS-458 (peptide)
peptide: AEGTGDFCWVFAFDHCHDPGPEGGGS-NHNH2
modifications: disulfide 8-16 (inferred)
B2: Affinity ligand CS-460 (peptide)
peptide: AEGTGDFCWVFPFHHCFDPGPEGGGS-NHNH2
modifications: disulfide 8-16 (inferred)
B3: Affinity ligand CS-456 (peptide)
peptide: AEGTGDFGCSWLFPCPFDPGPEGGGS-NHNH2
modifications: disulfide 9-15 (inferred)
B4: Affinity ligand CS-453 (peptide)
peptide: AEGTGDHPCGSWLRPCLHDPGPEGGGS-NHNH2
modifications: disulfide 9-16 (inferred)
B5: Affinity ligand CS-459 (peptide)
peptide: AEGTGDFCWVFPFQHCADPGPEGGGS-NHNH2
modifications: disulfide 8-16 (inferred)
B6: Affinity ligand CS-454 (peptide)
peptide: AEGTGDHLCGAWFRPCDADPGPEGGGS-NHNH2
modifications: disulfide 9-16 (inferred)
B7: Affinity ligand CS-455 (peptide)
peptide: AEGTGDFHCIGVWFCLHDPGPEGGGS-NHNH2
modifications: disulfide 9-15 (inferred)
B8: TN9 isolate 12 (phage-displayed peptide, SEQ ID NO: 28) (peptide)
peptide: FCWVFPFNHCS
B9: TN9/1 isolate … (SEQ ID NO: 75) (peptide)
peptide: FCWVFNWVHCD
B10: TN9 isolate 09 (phage-displayed peptide, SEQ ID NO: 29) (peptide)
peptide: FCWVFPFQHCA
B11: TN9 isolate 06 (phage-displayed peptide, SEQ ID NO: 30) (peptide)
peptide: FCWVFPFHHCF
B12: TN9 isolate 03 (phage-displayed peptide, SEQ ID NO: 26) (peptide)
peptide: FCWVFNFSHCS
B13: TN9/1 isolate … (SEQ ID NO: 77) (peptide)
peptide: FCWVFQFRHCH
B14: TN8 isolate 04 (phage-displayed peptide, SEQ ID NO: 12) (peptide)
peptide: HPCGSWLHPCAA
B15: TN8 isolate 07 (phage-displayed peptide, SEQ ID NO: 15) (peptide)
peptide: HACGSWFRPCHA
B16: TN8 isolate 02 (phage-displayed peptide, SEQ ID NO: 14) (peptide)
peptide: HPCGSWFRPCFH
B17: TN7 isolate C5/G10 (phage-displayed peptide, SEQ ID NO: 9) (peptide)
peptide: RLCSWVSPCSA
B18: TN9/1 isolate … (SEQ ID NO: 71) (peptide)
peptide: FCWVFAFDHCH
B19: TN7 isolate D04 (phage-displayed peptide, SEQ ID NO: 7) (peptide)
peptide: RLCSWISPCSA
B20: TN8 isolate 02 (phage-displayed peptide, SEQ ID NO: 16) (peptide)
peptide: HLCGAWFRPCDA
B21: TN7 isolate A08 (phage-displayed peptide, SEQ ID NO: 5) (peptide)
peptide: FGCSWLFPCPF
B22: TN8 isolate 02 (phage-displayed peptide, SEQ ID NO: 13) (peptide)
peptide: HPCGSWFNPCAH
B23: TN9 isolate 01 (phage-displayed peptide, SEQ ID NO: 31) (peptide)
peptide: FCHVFNFVHCS
B24: TN8 isolate 10 (phage-displayed peptide, SEQ ID NO: 10) (peptide)
peptide: HPCGSWLRPCLH
B25: TN8 isolate 12 (phage-displayed peptide, SEQ ID NO: 17) (peptide)
peptide: HLCFAWFRPCDA
B26: TN8 isolate 08 (phage-displayed peptide, SEQ ID NO: 20) (peptide)
peptide: HPCGAWLRPCYN
B27: TN8 isolate 11/G10 (phage-displayed peptide, SEQ ID NO: 21) (peptide)
peptide: HRCGSWLHPCLA
B28: TN7 isolate A06 (phage-displayed peptide, SEQ ID NO: 4) (peptide)
peptide: HSCGSWLFPCFA
B29: TN9 isolate 02 (phage-displayed peptide, SEQ ID NO: 27) (peptide)
peptide: FCWVFPFNHCD
B30: TN7 isolate A09 (phage-displayed peptide, SEQ ID NO: 8) (peptide)
peptide: FHCIGVWFCLH
B31: TN7 isolate D03 (phage-displayed peptide, SEQ ID NO: 6) (peptide)
peptide: PHCNWLFPCSL
B32: TN9 isolate 11 (phage-displayed peptide, SEQ ID NO: 32) (peptide)
peptide: FCHVFPFLHCD
B33: TN8 isolate 05 (phage-displayed peptide, SEQ ID NO: 11) (peptide)
peptide: RGCGSWLRPCLD
B34: TN9 isolate 01 (phage-displayed peptide, SEQ ID NO: 24) (peptide)
peptide: FCHVFHFSHCD
B35: TN8 isolate 01 (phage-displayed peptide, SEQ ID NO: 18) (peptide)
peptide: HGCGAWFRPCHA
B36: TN9 isolate 02 (phage-displayed peptide, SEQ ID NO: 23) (peptide)
peptide: FCWVHPFAHCL
B37: TN8 isolate 01 (phage-displayed peptide, SEQ ID NO: 19) (peptide)
peptide: HPCGAWFNPCPR

target: REFACTO® factor VIII-like polypeptide (amino acids 1-743 and 1638 through 2332 of human factor VIII) (human) (UniProt P00451); experiment: affinity column of immobilised peptide; fractions by factor VIII activity assay
Sequence (P00451 20-762, chain 1 of 2): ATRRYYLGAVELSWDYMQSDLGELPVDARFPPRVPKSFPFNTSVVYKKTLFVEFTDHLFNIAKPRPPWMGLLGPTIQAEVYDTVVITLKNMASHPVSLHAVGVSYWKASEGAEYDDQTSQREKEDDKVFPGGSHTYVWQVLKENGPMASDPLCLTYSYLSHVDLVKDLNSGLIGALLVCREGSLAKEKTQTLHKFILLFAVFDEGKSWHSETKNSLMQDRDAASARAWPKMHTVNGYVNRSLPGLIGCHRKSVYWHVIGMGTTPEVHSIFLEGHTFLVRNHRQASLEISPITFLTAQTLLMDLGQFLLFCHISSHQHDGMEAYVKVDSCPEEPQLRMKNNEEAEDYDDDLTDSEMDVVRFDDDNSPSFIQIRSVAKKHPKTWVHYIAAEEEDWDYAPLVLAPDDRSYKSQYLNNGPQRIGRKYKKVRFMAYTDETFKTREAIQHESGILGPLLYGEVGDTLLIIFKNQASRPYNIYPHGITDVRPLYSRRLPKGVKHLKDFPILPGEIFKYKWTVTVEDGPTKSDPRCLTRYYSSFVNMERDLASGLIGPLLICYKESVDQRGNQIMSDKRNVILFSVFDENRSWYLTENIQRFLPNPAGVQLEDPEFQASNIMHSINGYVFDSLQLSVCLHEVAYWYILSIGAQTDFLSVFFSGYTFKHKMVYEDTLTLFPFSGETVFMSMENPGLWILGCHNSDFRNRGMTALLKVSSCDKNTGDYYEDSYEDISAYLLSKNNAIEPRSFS
Sequence (P00451 1657-2351, chain 2 of 2): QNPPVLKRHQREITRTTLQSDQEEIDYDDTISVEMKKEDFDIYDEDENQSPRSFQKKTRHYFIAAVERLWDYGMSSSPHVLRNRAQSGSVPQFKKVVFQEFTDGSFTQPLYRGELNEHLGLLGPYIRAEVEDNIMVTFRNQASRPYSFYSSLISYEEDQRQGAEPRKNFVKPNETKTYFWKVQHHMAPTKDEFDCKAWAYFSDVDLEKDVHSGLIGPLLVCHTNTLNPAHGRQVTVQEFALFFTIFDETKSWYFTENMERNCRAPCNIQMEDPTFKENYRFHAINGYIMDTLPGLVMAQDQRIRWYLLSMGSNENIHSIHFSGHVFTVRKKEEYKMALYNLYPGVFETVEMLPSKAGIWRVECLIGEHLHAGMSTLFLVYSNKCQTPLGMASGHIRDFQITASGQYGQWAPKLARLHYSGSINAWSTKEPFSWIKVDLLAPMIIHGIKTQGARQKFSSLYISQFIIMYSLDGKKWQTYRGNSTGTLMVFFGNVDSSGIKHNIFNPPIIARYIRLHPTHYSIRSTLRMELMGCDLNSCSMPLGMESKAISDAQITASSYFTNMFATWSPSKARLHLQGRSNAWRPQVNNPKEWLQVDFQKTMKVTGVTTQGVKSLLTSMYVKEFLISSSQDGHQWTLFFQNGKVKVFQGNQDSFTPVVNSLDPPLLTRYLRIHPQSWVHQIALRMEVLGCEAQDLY

Binder | % recovery in Elution A [%] | % recovery in Flow [%]
B1 | 55.6 | 1.4
B2 | 0 | 28.4
B3 | 43 | 4.8
B4 | 26.4 | 0
B5 | 31.2 | 6.4
B6 | 42.4 | 2.2
B7 | 1.3 | 61.6

target: REFACTO® factor VIII-like polypeptide (amino acids 1-743 and 1638 through 2332 of human factor VIII) (human) (UniProt P00451); experiment: phage ELISA

Binder | R (ratio of the ELISA score with target present to the ELISA score without target)
B8 | 18
B9 | 14
B10 | 24
B11 | 6
B12 | 24
B13 | 8
B14 | 6
B15 | 6
B16 | 16
B17 | 10
B18 | 24
B19 | 6
B20 | 6
B21 | 8
B22 | 8
B23 | 8
B24 | 16
B25 | 8
B26 | 20
B27 | 6
B28 | 10
B29 | 8

target: REFACTO® factor VIII-like polypeptide (amino acids 1-743 and 1638 through 2332 of human factor VIII) (human) (UniProt P00451); experiment: phage ELISA, anti-M13-HRP

Binder | ELISA signal [OD630]
B8 | 1
B30 | 0.1
B10 | 1.1
B11 | 0.3
B12 | 1.1
B31 | 0.2
B14 | 0.3
B15 | 0.4
B16 | 0.7
B32 | 0.2
B17 | 0.5
B33 | 0.2
B34 | 0.2
B19 | 0.3
B20 | 0.4
B21 | 0.4
B22 | 0.3
B35 | 0.2
B23 | 0.5
B24 | 1
B25 | 0.4
B26 | 1
B27 | 0.3
B36 | 0.2
B37 | 0.2
B28 | 0.5
B29 | 0.4

target: REFACTO® factor VIII-like polypeptide (amino acids 1-743 and 1638 through 2332 of human factor VIII) (human) (UniProt P00451); experiment: affinity column of immobilised peptide; fractions by RP-HPLC

Binder | % recovery in Elution A [%] | % recovery in Elution B [%] | % recovery in Flow [%] | % recovery in pH 2 [%]
B1 | 54.3 | 0 | 1.8 | 0
B2 | 28.8 | 0 | 24.6 | 0
B3 | 44.8 | 0 | 3.4 | 0
B4 | 43.2 | 0 | 0 | 0
B5 | 42.1 | 0 | 1.6 | 0
B6 | 45.1 | 0 | 2.5 | 0
B7 | 1.4 | 0 | 65.8 | 0
